Source: patent US20260167710A1 (GlaxoSmithKline, published 2026)

Assays:
Assay in all cases: cell-based or functional assay
[1] = molecular target: spIL-33
[2] = molecular target: T1, IL-33 109-270 (UniProt O95760 109-270)
T1 sequence (looked up): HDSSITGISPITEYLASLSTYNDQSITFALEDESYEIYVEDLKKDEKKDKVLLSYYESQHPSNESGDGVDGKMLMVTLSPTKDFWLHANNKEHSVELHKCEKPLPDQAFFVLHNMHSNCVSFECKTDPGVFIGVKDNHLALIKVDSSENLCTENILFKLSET

[3] = molecular target: T2, IL-33 95-270 (UniProt O95760 95-270)
T2 sequence (looked up): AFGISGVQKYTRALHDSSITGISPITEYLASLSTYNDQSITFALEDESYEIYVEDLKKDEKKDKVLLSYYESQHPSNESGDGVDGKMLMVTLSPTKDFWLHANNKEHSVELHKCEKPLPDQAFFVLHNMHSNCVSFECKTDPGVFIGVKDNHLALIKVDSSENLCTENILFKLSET

[4] = molecular target: T3, Mature IL-33 (IL-33 113-270) (UniProt O95760 113-270)
T3 sequence (looked up): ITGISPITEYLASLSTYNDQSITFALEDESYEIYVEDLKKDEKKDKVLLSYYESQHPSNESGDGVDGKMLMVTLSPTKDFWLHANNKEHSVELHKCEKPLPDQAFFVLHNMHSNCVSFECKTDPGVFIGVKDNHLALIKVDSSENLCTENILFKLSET

[5] = molecular target: T4, IL-33 99-270 (UniProt O95760 99-270)
T4 sequence (looked up): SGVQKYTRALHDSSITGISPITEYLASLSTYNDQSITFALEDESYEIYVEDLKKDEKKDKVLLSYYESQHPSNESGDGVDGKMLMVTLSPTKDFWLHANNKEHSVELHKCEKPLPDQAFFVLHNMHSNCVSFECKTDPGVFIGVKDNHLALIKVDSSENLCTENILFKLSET

[6] = molecular target: T5, human IL-33 (human, Biotinylated in Example 2; the site is not stated.)
T5 chain: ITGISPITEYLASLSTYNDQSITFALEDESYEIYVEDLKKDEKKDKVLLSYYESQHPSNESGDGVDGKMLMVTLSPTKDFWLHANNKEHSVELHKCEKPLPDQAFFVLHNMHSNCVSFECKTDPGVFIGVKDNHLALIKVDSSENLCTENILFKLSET

[7] = molecular target: T5, human IL-33

IC50, inhibition of 25 pM IL-33 isoform in HEK-Blue reporter assay [1]: 90.3 pM
IC50, inhibition of 25 pM IL-33 isoform in HEK-Blue reporter assay [2]: 254 pM
IC50, inhibition of 25 pM IL-33 isoform in HEK-Blue reporter assay [3]: 162 pM
IC50, inhibition of 25 pM IL-33 isoform in HEK-Blue reporter assay [4]: 18.2 pM
IC50, inhibition of 25 pM IL-33 isoform in HEK-Blue reporter assay [5]: 436 pM
IC50, inhibition of IL-33 (15 pM) induced superoxide generation from eosinophils, pre-complexed, Mean [6]: 19.6 pM
IC50, inhibition of IL-33 (15 pM) induced superoxide generation from eosinophils, pre-complexed, N = 1 [6]: 21.9 pM
IC50, inhibition of IL-33 (15 pM) induced superoxide generation from eosinophils, pre-complexed, N = 2 [6]: 23.5 pM
IC50, inhibition of IL-33 (15 pM) induced superoxide generation from eosinophils, pre-complexed, N = 3 [6]: 16.5 pM
IC50, inhibition of IL-33 (15 pM) induced superoxide generation from eosinophils, pre-complexed, N = 4 [6]: 25.6 pM
IC50, inhibition of IL-33 (15 pM) induced superoxide generation from eosinophils, pre-complexed, N = 5 [6]: 14.8 pM
IC50, inhibition of IL-33 (15 pM) induced superoxide generation from eosinophils, pre-complexed, N = 6 [6]: 10.5 pM
IC50, inhibition of IL-33 (15 pM) induced superoxide generation from eosinophils, pre-complexed, N = 7 [6]: 24.8 pM
pIC50, inhibition of IL-33 (15 pM) induced superoxide generation from eosinophils, pre-complexed, Mean [6]: 10.7
pIC50, inhibition of IL-33 (15 pM) induced superoxide generation from eosinophils, pre-complexed, N = 1 [6]: 10.7
pIC50, inhibition of IL-33 (15 pM) induced superoxide generation from eosinophils, pre-complexed, N = 2 [6]: 10.6
pIC50, inhibition of IL-33 (15 pM) induced superoxide generation from eosinophils, pre-complexed, N = 3 [6]: 10.8
pIC50, inhibition of IL-33 (15 pM) induced superoxide generation from eosinophils, pre-complexed, N = 4 [6]: 10.6
pIC50, inhibition of IL-33 (15 pM) induced superoxide generation from eosinophils, pre-complexed, N = 5 [6]: 10.8
pIC50, inhibition of IL-33 (15 pM) induced superoxide generation from eosinophils, pre-complexed, N = 6 [6]: 11
pIC50, inhibition of IL-33 (15 pM) induced superoxide generation from eosinophils, pre-complexed, N = 7 [6]: 10.6
IC50, inhibition of 30 ng/mL IL-33/IL-12 induced IFN-γ secretion from whole blood, pre-complexed, Mean [7]: 3.24 nM
IC50, inhibition of 30 ng/mL IL-33/IL-12 induced IFN-γ secretion from whole blood, pre-complexed, donor #91232 [7]: 1.47 nM
IC50, inhibition of 30 ng/mL IL-33/IL-12 induced IFN-γ secretion from whole blood, pre-complexed, donor #91845 [7]: 3.88 nM
IC50, inhibition of 30 ng/mL IL-33/IL-12 induced IFN-γ secretion from whole blood, pre-complexed, donor #92023 [7]: 2.48 nM
IC50, inhibition of 30 ng/mL IL-33/IL-12 induced IFN-γ secretion from whole blood, pre-complexed, donor #92187 [7]: 4.92 nM
IC50, inhibition of 30 ng/mL IL-33/IL-12 induced IFN-γ secretion from whole blood, pre-complexed, donor #92257 [7]: 1.75 nM
IC50, inhibition of 30 ng/mL IL-33/IL-12 induced IFN-γ secretion from whole blood, pre-complexed, donor #92258 [7]: 4.93 nM
pIC50, inhibition of 30 ng/mL IL-33/IL-12 induced IFN-γ secretion from whole blood, pre-complexed, Mean [7]: 8.53
pIC50, inhibition of 30 ng/mL IL-33/IL-12 induced IFN-γ secretion from whole blood, pre-complexed, donor #91232 [7]: 8.83
pIC50, inhibition of 30 ng/mL IL-33/IL-12 induced IFN-γ secretion from whole blood, pre-complexed, donor #91845 [7]: 8.41
pIC50, inhibition of 30 ng/mL IL-33/IL-12 induced IFN-γ secretion from whole blood, pre-complexed, donor #92023 [7]: 8.6
pIC50, inhibition of 30 ng/mL IL-33/IL-12 induced IFN-γ secretion from whole blood, pre-complexed, donor #92187 [7]: 8.3
pIC50, inhibition of 30 ng/mL IL-33/IL-12 induced IFN-γ secretion from whole blood, pre-complexed, donor #92257 [7]: 8.75
pIC50, inhibition of 30 ng/mL IL-33/IL-12 induced IFN-γ secretion from whole blood, pre-complexed, donor #92258 [7]: 8.3
B1: 22A06-458 (antibody, human IgG1, kappa)
heavy: QVQLVQSGAEVKKPGASVKVSCKASGYTFISYGMHWVRQAPGQGLEWMGEINPHGGSTSYAQKFKGRVTMTRDTSTSTVYMELSSLRSEDTAVYYCARPSAAYSHYLGIDLWGRGTLVTVSSASTKGPSVFPLAPSSKSTSGGTAALGCLVKDYFPEPVTVSWNSGALTSGVHTFPAVLQSSGLYSLSSVVTVPSSSLGTQTYICNVNHKPSNTKVDKKVEPKSCDKTHTCPPCPAPELLGGPSVFLFPPKPKDTLYITREPEVTCVVVDVSHEDPEVKFNWYVDGVEVHNAKTKPREEQYNSTYRVVSVLTVLHQDWLNGKEYKCKVSNKALPAPIEKTISKAKGQPREPQVYTLPPSRDELTKNQVSLTCLVKGFYPSDIAVEWESNGQPENNYKTTPPVLDSDGSFFLYSKLTVDKSRWQQGNVFSCSVMHEALHNHYTQKSLSLSPGK
light: DIQMTQSPSSVSASVGDRVTITCRASQGISSWLAWYQQKPGKAPKLLIYAASRLQSGVPSRFSGSGSGTDFTLTISSLQPEDFATYYCQQANVFPLTFGGGTKVEIKRTVAAPSVFIFPPSDEQLKSGTASVVCLLNNFYPREAKVQWKVDNALQSGNSQESVTEQDSKDSTYSLSSTLTLSKADYEKHKVYACEVTHQGLSSPVTKSFNRGEC
